Assay results reported in patent publication US20070116694A1, “Inhibitor of interaction of granzyme b with golgin-160” (Daiichi Pharmaceutical Co., Ltd., priority 2003, published 2007).

Target: T1, Granzyme B (Homo sapiens, UniProt P10144)
T1 construct: purchased Calbiochem 368042
Assay: in vitro protease assay (decomposition by Granzyme B)
Assay type: biochemical
Conditions: Granzyme B 0.05 μg, substrate protein 0.2 μg, 37° C. for 2 hours, SDS-PAGE, Coomassie Brilliant Blue
Method: An in vitro protease assay was carried out to confirm in an experiment whether or not Golgin-160 is decomposed by Granzyme B. Granzyme B, Human, cell culture-derived (Calbiochem, Catalog No. 368042) was purchased, and this product was used as Granzyme B. Granzyme B (0.05 μg) was added to 10 μl of a cleavage buffer containing TRX-Golgin-160, procaspase-3, or TRX-LAG 3 (0.2 μg each) (wherein the buffer consisted of 50 mM Hepes-KOH (pH 7.4), 2 mM EDTA, 1% NP-40, 0.1 M NaCl, and 10 mM DTT) (Kam C. M., Huding D., et al., “Granzymes (lymphocyte serine proteases): characterization with natural and synthetic substrates and inhibitors” in Biochim. Biophys. Acta, 1477:307-323 (2000)). The obtained mixture was incubated at 37° C. for 2 hours. After completion of the incubation, 2×SDS sample buffer (125 mM Tris-HCl (pH 6.8), 4% (w/v) sodium dodecyl sulfate, 20% (v/v) glycerol, 0.01% (w/v) bromophenol blue, and 20% (v/v) 2-mercaptoethanol) was added at an equivalent amount to each reaction solution, and the obtained mixture was heated for 5 minutes. Thereafter, the obtained reaction mixture was separated by SDS-PAGE and then stained with Coomassie Brilliant Blue. Thus, a protein and a decomposition product thereof were observed.

T1 sequence (P10144 21-247): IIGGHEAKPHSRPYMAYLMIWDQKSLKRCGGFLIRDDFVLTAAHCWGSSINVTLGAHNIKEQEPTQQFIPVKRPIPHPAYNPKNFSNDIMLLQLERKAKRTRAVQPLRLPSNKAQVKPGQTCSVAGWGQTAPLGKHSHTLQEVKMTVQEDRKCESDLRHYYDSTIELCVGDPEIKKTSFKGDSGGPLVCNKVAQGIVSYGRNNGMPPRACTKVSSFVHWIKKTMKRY

B1: Procaspase-3: Recombinant Human procaspase-3 (MBL/BioVision), positive control in the in vitro protease assay of Granzyme B (protein, UniProt P42574 1-277, looked up)
pro-form: MENTENSVDSKSIKNLEPKIIHGSESMDSGISLDNSYKMDYPEMGLCIIINNKNFHKSTGMTSRSGTDVDAANLRETFRNLKYEVRNKNDLTREEIVELMRDVSKEDHSKRSSFVCVLLSHGEEGIIFGTNGPVDLKKITNFFRGDRCRSLTGKPKLFIIQACRGTELDCGIETDSGVDDDMACHKIPVEADFLYAYSTAPGYYSWRNSKDGSWFIQSLCAMLKQYADKLEFMHILTRVNRKVATEFESFSFDATFHAKKQIPCIVSMLTKELYFYH
modifications: pro-form
notes: Recombinant Human procaspase-3 (MBL/BioVision), positive control in the in vitro protease assay of Granzyme B
- decomposition by Granzyme B: decomposed
